# Article PMC9738047 (International Journal of Molecular Sciences, 2022)
# Target: the molecule itself
# Assay: crystal structure; anti-IL-17A-76 and IL-17A mixed at molar ratio 2.3:1, complex isolated on Superdex G-75; vapor diffusion at 297 K; 2.85 A; molecular replacement with 4HSA and 6QKD
protein,measurement,value
"IL-17A (interleukin-17A) without N-signal sequence, double mutation N68D/C129S (ligand, UniProt Q16552 24-155, looked up, Dimer in the crystal (monomer in the asymmetric unit, molecules A and A*); also called the cytokine) GITIPRNPGCPNSEDKNFPRTVMVNLNIHNRNTNTNPKRSSDYYDRSTSPWNLHRNEDPERYPSVIWEAKCRHLGCINADGNVDYHMNSVPIQQEILVLRREPPHSPNSFRLEKILVSVGCTCVTPIVHHVA",binding result,binds
